These results are taken from patent publication US20140328939A1, “METHOD FOR PREPARING BIOCOMPATIBLE SMALL INTESTINAL MUCOSA HYDROGEL CAPABLE OF CONTROLLING IN-VIVO DEGRADATION PERIOD” (AJOU UNIVERSITY INDUSTRY-ACADEMIC COOPERATION FOUNDATION, priority 2011, published 2014).

A short description of this data set: In-vivo drug release test (FITC-labeled albumin). The note with it: 0.5 mL subcutaneous, SD rats; FITC-BSA 1 mg/mL. Here is the method: The prepared small intestinal submucosa powder was dissolved in phosphate buffered saline to 10, 15 and 20 wt %, respectively, to prepare homogeneous solutions. Then, FITC-labeled albumin (FITC-BSA) was added to a concentration of 1 mg/mL. 0.5 mL of the albumin-containing small intestine submucosa solutions were subcutaneously injected to nine SD rats (male, 8 weeks old, 350-380 g) using a syringe (21 G, 1-cc needle). For comparison, 0.5 mL of a solution containing FITC-labeled albumin of the same concentration was subcutaneously injected to three rats. When only albumin was subcutaneously injected, the drug was not released any more after 1 day. In contrast, in case of the albumin-containing small intestinal submucosa hydrogel, the drug was continuously released for about 9 days.

On to “albumin: FITC-labeled albumin (FITC-BSA) solution, model drug injected alone for comparison”, for which the “duration of drug release (albumin concentration in blood)” value is on record as at most 1 days.
